For one test, the target named is Rluc-ADGRG2-ΔGPS-β W757A. The test can be described thus: BRET binding of FITC-VPM-p15. Set-up: species or system mouse. The conditions noted are these: HEK293, BRET saturation binding, repeated 6 times. Here is the method: (§1) The binding capacities of ADGRG2 WT or its mutants for VPM-p15 were determined by BRET assay, which has been used in previous studies ([27], [28], [29]). We fused the N terminus of ADGRG2 with a Rluc fragment and coupled FITC to the C terminus of VPM-p15 to facilitate BRET measurement. We stimulated the HEK293 cells transfected with Rluc-ADGRG2-ΔGPS-β wildtype (WT) or mutants by increasing the concentration of FITC-conjugated VPM-p15, and their binding abilities were determined by fitting the data with the saturation curves.
(§2) In the detection of binding capacities of ADGRG2 WT or its mutants for VPM-p15, HEK293 cells were transfected with Rluc-ADGRG2-ΔGPS-β or mutants. Transfected cells were stimulated by increasing the concentration of FITC-conjugated VPM-p15. Binding capacities were determined by BRET, EC50 values of ADGRG2 WT and its mutants for binding VPM-p15 were calculated by GraphPad, and data were normalized by EC50 of WT.
On the technique in general: Bioluminescence resonance energy transfer reports proximity on the nanometre scale.

For the next test, the target named is Rluc-ADGRG2-ΔGPS-β W824A. The test can be described thus: BRET binding of FITC-VPM-p15. Set-up: species or system mouse. The conditions noted are these: HEK293, BRET saturation binding, repeated 6 times. Here is the method:
as §1, §2

In another test the target is Rluc-ADGRG2-ΔGPS-β I758A. The test is described as follows: BRET binding of FITC-VPM-p15. Also on record: species or system mouse. The conditions noted are these: HEK293, BRET saturation binding, repeated 6 times. Here is the method: as §1, §2
The target of a further test is T1, Rluc-ADGRG2-ΔGPS-β C614A (mouse, UniProt Q8CJ12-3 38-995, C614A).
T1 construct: ADGRG2 (GPR64), mouse, ADGRG2-ΔGPS-β: the entire ECD removed; source: HEK293, transfected, on cells; not shown: Rluc, N-terminal, kept
T1 sequence (Q8CJ12 other isoform, or with tags, fused parts or gaps C614A | C614A | C614A C614A): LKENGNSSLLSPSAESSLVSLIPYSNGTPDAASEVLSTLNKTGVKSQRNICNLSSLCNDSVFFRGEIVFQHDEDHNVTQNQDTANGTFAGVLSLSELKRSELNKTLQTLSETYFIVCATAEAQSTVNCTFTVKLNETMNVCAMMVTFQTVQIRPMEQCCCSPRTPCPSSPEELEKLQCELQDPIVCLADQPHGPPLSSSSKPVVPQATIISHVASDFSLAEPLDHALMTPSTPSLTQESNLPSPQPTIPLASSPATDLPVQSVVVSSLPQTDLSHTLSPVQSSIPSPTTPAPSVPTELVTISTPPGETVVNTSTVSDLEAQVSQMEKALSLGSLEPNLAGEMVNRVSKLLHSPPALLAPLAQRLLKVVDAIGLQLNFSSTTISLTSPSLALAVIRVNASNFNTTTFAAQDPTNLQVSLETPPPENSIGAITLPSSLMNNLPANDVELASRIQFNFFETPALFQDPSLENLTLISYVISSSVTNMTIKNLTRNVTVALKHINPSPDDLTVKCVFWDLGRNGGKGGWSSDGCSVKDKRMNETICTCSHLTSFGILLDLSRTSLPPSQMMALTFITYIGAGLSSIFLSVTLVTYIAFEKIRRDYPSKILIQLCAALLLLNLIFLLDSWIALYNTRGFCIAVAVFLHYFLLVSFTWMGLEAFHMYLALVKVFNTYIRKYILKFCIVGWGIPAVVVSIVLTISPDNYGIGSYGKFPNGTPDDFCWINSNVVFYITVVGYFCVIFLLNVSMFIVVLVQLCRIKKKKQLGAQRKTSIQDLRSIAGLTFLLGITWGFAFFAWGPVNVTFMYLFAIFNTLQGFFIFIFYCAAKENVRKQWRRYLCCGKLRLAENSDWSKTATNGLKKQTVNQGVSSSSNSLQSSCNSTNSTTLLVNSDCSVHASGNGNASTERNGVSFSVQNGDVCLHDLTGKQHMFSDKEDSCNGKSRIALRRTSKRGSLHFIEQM
The test is described as follows: FRET or BRET; HEK293 cells transfected with Rluc-ADGRG2-ΔGPS-β WT or mutants, stimulated by increasing concentrations of FITC-conjugated VPM-p15; saturation curves fitted with GraphPad; each experiment repeated 6 times. The conditions noted are these: one partner purified.

A further test has as its target T2, Rluc-ADGRG2-ΔGPS-β V836A (mouse, UniProt Q8CJ12-3 38-995, V836A).
T2 construct: ADGRG2 (GPR64), mouse, ADGRG2-ΔGPS-β: the entire ECD removed; source: HEK293, transfected, on cells; not shown: Rluc, N-terminal, kept
Described as above. The conditions noted are these: one partner purified.

In the next test the target is T3, Rluc-ADGRG2-ΔGPS-β F829A (mouse, UniProt Q8CJ12-3 38-995, F829A).
T3 construct: ADGRG2 (GPR64), mouse, ADGRG2-ΔGPS-β: the entire ECD removed; source: HEK293, transfected, on cells; not shown: Rluc, N-terminal, kept
T3 sequence (Q8CJ12 other isoform, or with tags, fused parts or gaps F829A | F829A | F829A F829A): as the sequence (Q8CJ12 other isoform, or with tags, fused parts or gaps C614A | C614A | C614A C614A) above, with A577C, F792A counted along it
The test is described as above. The conditions noted are these: one partner purified.

The target in the next test is T4, Rluc-ADGRG2-ΔGPS-β L665A (mouse, UniProt Q8CJ12-3 38-995, L665A).
T4 construct: ADGRG2 (GPR64), mouse, ADGRG2-ΔGPS-β: the entire ECD removed; source: HEK293, transfected, on cells; not shown: Rluc, N-terminal, kept
T4 sequence (Q8CJ12 other isoform, or with tags, fused parts or gaps L665A | L665A | L665A L665A): as the sequence (Q8CJ12 other isoform, or with tags, fused parts or gaps C614A | C614A | C614A C614A) above, with A577C, L628A counted along it
The test is described as above. The conditions noted are these: one partner purified.

Another test addresses T5, Rluc-ADGRG2-ΔGPS-β F772A (mouse, UniProt Q8CJ12-3 38-995, F772A).
T5 construct: ADGRG2 (GPR64), mouse, ADGRG2-ΔGPS-β: the entire ECD removed; source: HEK293, transfected, on cells; not shown: Rluc, N-terminal, kept
Described as above. The conditions noted are these: one partner purified.

The next test has as its target T6, Rluc-ADGRG2-ΔGPS-β F828A (mouse, UniProt Q8CJ12-3 38-995, F828A).
T6 construct: ADGRG2 (GPR64), mouse, ADGRG2-ΔGPS-β: the entire ECD removed; source: HEK293, transfected, on cells; not shown: Rluc, N-terminal, kept
Described as above. The conditions noted are these: one partner purified.

The target of another test is T7, Rluc-ADGRG2-ΔGPS-β I741A (mouse, UniProt Q8CJ12-3 38-995, I741A).
T7 construct: ADGRG2 (GPR64), mouse, ADGRG2-ΔGPS-β: the entire ECD removed; also called F741A (as the methods list it); source: HEK293, transfected, on cells; not shown: Rluc, N-terminal, kept
T7 sequence (Q8CJ12 other isoform, or with tags, fused parts or gaps I741A | I741A | I741A I741A): as the sequence (Q8CJ12 other isoform, or with tags, fused parts or gaps C614A | C614A | C614A C614A) above, with A577C, I704A counted along it
The test is described as above. The conditions noted are these: one partner purified.

The target of a further test is T8, Rluc-ADGRG2-ΔGPS-β F764A (mouse, UniProt Q8CJ12-3 38-995, F764A).
T8 construct: ADGRG2 (GPR64), mouse, ADGRG2-ΔGPS-β: the entire ECD removed; source: HEK293, transfected, on cells; not shown: Rluc, N-terminal, kept
T8 sequence (Q8CJ12 other isoform, or with tags, fused parts or gaps F764A | F764A | F764A F764A): as the sequence (Q8CJ12 other isoform, or with tags, fused parts or gaps C614A | C614A | C614A C614A) above, with A577C, F727A counted along it
The test is described as above. The conditions noted are these: one partner purified.

The target in another test is T9, Rluc-ADGRG2-ΔGPS-β L679A (mouse, UniProt Q8CJ12-3 38-995, L679A).
T9 construct: ADGRG2 (GPR64), mouse, ADGRG2-ΔGPS-β: the entire ECD removed; source: HEK293, transfected, on cells; not shown: Rluc, N-terminal, kept
T9 sequence (Q8CJ12 other isoform, or with tags, fused parts or gaps L679A | L679A | L679A L679A): as the sequence (Q8CJ12 other isoform, or with tags, fused parts or gaps C614A | C614A | C614A C614A) above, with A577C, L642A counted along it
Described as above. The conditions noted are these: one partner purified.

Another test addresses T10, Rluc-ADGRG2-ΔGPS-β L683A (mouse, UniProt Q8CJ12-3 38-995, L683A).
T10 construct: ADGRG2 (GPR64), mouse, ADGRG2-ΔGPS-β: the entire ECD removed; source: HEK293, transfected, on cells; not shown: Rluc, N-terminal, kept
Described as above. The conditions noted are these: one partner purified.

The target of another test is T11, Rluc-ADGRG2-ΔGPS-β V834A (mouse, UniProt Q8CJ12-3 38-995, V834A).
T11 construct: ADGRG2 (GPR64), mouse, ADGRG2-ΔGPS-β: the entire ECD removed; source: HEK293, transfected, on cells; not shown: Rluc, N-terminal, kept
T11 sequence (Q8CJ12 other isoform, or with tags, fused parts or gaps V834A | V834A | V834A V834A): as the sequence (Q8CJ12 other isoform, or with tags, fused parts or gaps C614A | C614A | C614A C614A) above, with A577C, V797A counted along it
The description is as above. The conditions noted are these: one partner purified.

A further test concerns the target T12, Rluc-ADGRG2-ΔGPS-β F845A (mouse, UniProt Q8CJ12-3 38-995, F845A).
T12 construct: ADGRG2 (GPR64), mouse, ADGRG2-ΔGPS-β: the entire ECD removed; source: HEK293, transfected, on cells; not shown: Rluc, N-terminal, kept
Described as above. The conditions noted are these: one partner purified.

Non-standard residues stand in square brackets, D forms with d. Residues, ends and D or L forms follow the SMILES beside them. Primed or numbered codes have the meaning given here. No end group written: not given here. *: point of attachment. FITC = O=C1OC2(c3ccc(O)cc3Oc3cc(O)ccc32)c2ccc(NC(=S)*)cc21; Phe(4-Me) = Cc1ccc(C[C@H](N)C(=O)O)cc1; FITC′ = not defined here

T12 sequence (Q8CJ12 other isoform, or with tags, fused parts or gaps F845A | F845A | F845A F845A): as the sequence (Q8CJ12 other isoform, or with tags, fused parts or gaps C614A | C614A | C614A C614A) above, with A577C, F808A counted along it
T2 sequence (Q8CJ12 other isoform, or with tags, fused parts or gaps V836A | V836A | V836A V836A): as the sequence (Q8CJ12 other isoform, or with tags, fused parts or gaps C614A | C614A | C614A C614A) above, with A577C, V799A counted along it
T5 sequence (Q8CJ12 other isoform, or with tags, fused parts or gaps F772A | F772A | F772A F772A): as the sequence (Q8CJ12 other isoform, or with tags, fused parts or gaps C614A | C614A | C614A C614A) above, with A577C, F735A counted along it
T10 sequence (Q8CJ12 other isoform, or with tags, fused parts or gaps L683A | L683A | L683A L683A): as the sequence (Q8CJ12 other isoform, or with tags, fused parts or gaps C614A | C614A | C614A C614A) above, with A577C, L646A counted along it
T6 sequence (Q8CJ12 other isoform, or with tags, fused parts or gaps F828A | F828A | F828A F828A): as the sequence (Q8CJ12 other isoform, or with tags, fused parts or gaps C614A | C614A | C614A C614A) above, with A577C, F791A counted along it

`CC[C@H](C)[C@H](NC(=O)CNC(=O)[C@H](Cc1ccc(C)cc1)NC(=O)[C@H](CO)NC(=O)[C@@H](N)C(C)C)C(=O)N[C@@H](CC(C)C)C(=O)N[C@@H](CC(C)C)C(=O)N[C@@H](CC(=O)O)C(=O)N[C@@H](CC(C)C)C(=O)N[C@@H](CO)C(=O)N[C@@H](CCCNC(=N)N)C(=O)N[C@H](C(=O)N[C@@H](CO)C(=O)N[C@@H](CC(C)C)C(=O)N1CCC[C@H]1C(=O)N[C@@H](CCCCNC(=S)Nc1ccc2c(c1)C(=O)OC21c2ccc(O)cc2Oc2cc(O)ccc21)C(=O)O)[C@@H](C)O` [FITC-VPM-p15] (H-VS[Phe(4-Me)]GILLDLSRTSLPK(FITC)-OH; N-terminus and C-terminus assumed): the “Binding to mutant (result in words across EC50 / Fmut / Bmax)” value at Rluc-ADGRG2-ΔGPS-β W757A, at Rluc-ADGRG2-ΔGPS-β W824A and at Rluc-ADGRG2-ΔGPS-β I758A was “No binding” throughout.

Usually EC50 stands for the midpoint of the concentration-response curve. VS[Phe(4-Me)]GILLDLSRTSLP-{FITC′} [FITC-conjugated VPM-p15 (ADGRG2 Stachel peptide p15 T1V/F3Phe(4-Me))]: the concentration giving a half-maximal response (EC50) with Rluc-ADGRG2-ΔGPS-β C614A was 1290 nM; with Rluc-ADGRG2-ΔGPS-β V836A, 1230 nM; with Rluc-ADGRG2-ΔGPS-β F829A, 323 nM; with Rluc-ADGRG2-ΔGPS-β L665A, 796 nM; in the test with Rluc-ADGRG2-ΔGPS-β F772A, 842 nM; in the test with Rluc-ADGRG2-ΔGPS-β F828A it was 1170 nM. Also, the concentration giving a half-maximal response (EC50) was determined as 669 nM in the test with Rluc-ADGRG2-ΔGPS-β I741A; 1110 nM in the test with Rluc-ADGRG2-ΔGPS-β F764A; 1160 nM with Rluc-ADGRG2-ΔGPS-β L679A; 1160 nM in the test with Rluc-ADGRG2-ΔGPS-β L683A; 1120 nM with Rluc-ADGRG2-ΔGPS-β V834A; 1360 nM in the test with Rluc-ADGRG2-ΔGPS-β F845A.
